Measurements published in paper PMC5035970.

Assays:
HIV-1 Gag∆p6 (HIV-1) [1] = assay: fluorescence anisotropy
[2] = test system: H132R (HIV-1 / Rous sarcoma virus chimera); assay: fluorescence anisotropy
HIV-1 Gag∆p6 (HIV-1) [3] = assay: FA salt titration
[4] = test system: RSV CANC (Rous sarcoma virus, Prague C strain); assay: FA salt titration
[5] = test system: R155H (Rous sarcoma virus (Prague C) / HIV-1 chimera); assay: FA salt titration
[6] = test system: H132R (HIV-1 / Rous sarcoma virus chimera); assay: FA salt titration
[7] = test system: RSV Gag∆PR (Rous sarcoma virus, Prague C strain); assay: FA salt titration
[8] = test system: RSV Gag∆PR (Rous sarcoma virus, Prague C strain); assay: fluorescence anisotropy

Substance	Kd (HIV-1 Gag∆p6 (HIV-1) [1]) [nM]	Kd [2] [nM]	Kd (HIV-1 Gag∆p6 (HIV-1) [3]) [mM]	Kd [4] [mM]	Kd [5] [mM]	Kd [6] [mM]	Kd [7] [mM]	Kd [8] [nM]
RSV MΨ WT	14	13	0.055	0.013	0.067	0.072	0.071	–
HIV-1 Ψ-WT	–	–	0.036	–	0.031	19	32	14
RSV MΨ A197G	–	–	–	–	–	–	0.047	–
HIV-1 TARpolyA	–	–	560	–	2600	290	40	18
RSV MΨ UGCG to GAGA	–	–	–	–	–	–	0.012	–
RSV MΨ GG to CC	–	–	–	–	–	–	0.49	–
